Laboratory results: the supplement of paper PMC9233669
Variants at the floor of the assay were thinned out.

Columns and labels:
[1] = system: biotinyl-Trp-oxazolone; test: self-aminoacylation, catalytic enhancement (BWO) (fold over background); higher = more active; k-Seq, kA / k0A0; sequences stand for … in GGGAAUGGAUCCACAUCUACGAAUUC…UUCACUGCAGACUUGACGAAGCUG
Procedure, shortened: (§1)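 Working in 50 μL HEPES/NaCl/KCl/MgCl2/CaCl2 buffer with 5% acetonitrile at pH 6.9–7.0, mutagenized RNA pools (0.43 μM; 21-nt variable region) were reacted with 2–1250 μM of each biotinyl-aminoacyl-oxazolone for 90 minutes at room temperature. Streptavidin capture followed, with quantification by triplicate qPCR and Illumina sequencing. Catalytic enhancement is reported as median kA over the uncatalyzed rate, the low-activity peak of a bimodal Gaussian fit to the data.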

[2] = system: biotinyl-Met-oxazolone; test: self-aminoacylation, catalytic enhancement (BMO) (fold over background); higher = more active; k-Seq, kA / k0A0; sequences stand for … in GGGAAUGGAUCCACAUCUACGAAUUC…UUCACUGCAGACUUGACGAAGCUG
Procedure, shortened: as §1

[3] = system: biotinyl-Val-oxazolone; test: self-aminoacylation, catalytic enhancement (BVO) (fold over background); higher = more active; k-Seq, kA / k0A0; sequences stand for … in GGGAAUGGAUCCACAUCUACGAAUUC…UUCACUGCAGACUUGACGAAGCUG
Procedure, shortened: as §1

[4] = system: biotinyl-Leu-oxazolone; test: self-aminoacylation, catalytic enhancement (BLO) (fold over background); higher = more active; k-Seq, kA / k0A0; sequences stand for … in GGGAAUGGAUCCACAUCUACGAAUUC…UUCACUGCAGACUUGACGAAGCUG
Procedure, shortened: as §1

[5] = system: biotinyl-Phe-oxazolone; test: self-aminoacylation, catalytic enhancement (BFO) (fold over background); higher = more active; k-Seq, kA / k0A0; sequences stand for … in GGGAAUGGAUCCACAUCUACGAAUUC…UUCACUGCAGACUUGACGAAGCUG
Procedure, shortened: as §1

[6] = system: biotinyl-Ile-oxazolone; test: self-aminoacylation, catalytic enhancement (BIO) (fold over background); higher = more active; k-Seq, kA / k0A0; sequences stand for … in GGGAAUGGAUCCACAUCUACGAAUUC…UUCACUGCAGACUUGACGAAGCUG
Procedure, shortened: as §1

Row | Sequence | self-aminoacylation [1] | self-aminoacylation [2] | self-aminoacylation [3] | self-aminoacylation [4] | self-aminoacylation [5] | self-aminoacylation [6]
1 | AUUACCCUGGGCAUCGAGAGA [Fam2.1 aminoacylation ribozyme variant] | 0.642 | 0.914 | 0.74 | 0.749 | 0.489 | 0.802
2 | AUUACCCUGGUUUUCGAGUGA [Fam2.1 aminoacylation ribozyme variant] | 10.9 | 8.29 | 4.43 | 9.42 | 45.7 | 3.74
3 | CCACACUUCAAGCAACUGGUC [Fam1B.1 aminoacylation ribozyme variant] | 0.338 | 0.52 | 0.616 | 0.505 | 0.699 | 0.57
4 | ACUCCCCUGGUCAUCGAGUGA [Fam2.1 aminoacylation ribozyme variant] | 6.48 | 6.39 | 3.69 | 6.71 | 42.7 | 3.18
5 | CUACCUCAAACAAUCGGUCAG [Fam1A.1 aminoacylation ribozyme variant] | 0.767 | 1.01 | 0.873 | 1.01 | 1.33 | 0.808
6 | AAGUUUGCUAAUAGUCGCGAU [Fam3.1 aminoacylation ribozyme variant] | 1.86 | 1.33 | 1.37 | 1.47 | 1.53 | 1.46
7 | CCACACUUAAAGCAAUCGGGC [Fam1B.1 aminoacylation ribozyme variant] |  |  |  |  |  | 2.19
8 | AGGUUUGCUAAUAGUCUCAAG [Fam3.1 aminoacylation ribozyme variant] | 2.89 | 1.36 | 1.22 | 1.22 | 9.24 | 1.17
9 | CUUCACCUAGGUCGUCGGGUG [Fam2.2 aminoacylation ribozyme variant] | 2.19 | 2.39 | 2.54 | 2.43 | 9.55 | 2.2
10 | AAGUUGGCUAAUAGUCGCAUG [Fam3.1 aminoacylation ribozyme variant] | 2 | 1.88 | 1.51 | 2.19 | 1.69 | 1.77
11 | AUUAGCCUGGUCAUCGAGUUA [Fam2.1 aminoacylation ribozyme variant] | 0.867 | 1.41 | 1.24 | 1.27 | 1.15 | 1.36
12 | CUACUUGAAACAAUAGGUCUG [Fam1A.1 aminoacylation ribozyme variant] | 0.841 | 1.09 | 1.05 | 1.13 | 0.837 | 1.06
13 | AGUACCCUGGUCAUCGAGUGA [Fam2.1 aminoacylation ribozyme variant] | 13.6 | 13.2 | 6.48 | 12.8 | 28.7 | 6.11
14 | CUACUCCUAACAAUCGGUCUG [Fam1A.1 aminoacylation ribozyme variant] | 0.441 | 0.504 | 0.774 | 0.667 | 0.659 | 0.748
15 | CCACACUUCAAACAAUCGGUU [Fam1B.1 aminoacylation ribozyme variant] | 21.5 | 1.93 | 2.17 | 2.57 | 29.6 | 1.91
16 | AAGUUUGGUUAUAGUCGCAAG [Fam3.1 aminoacylation ribozyme variant] | 1.46 | 1.23 | 1.39 | 1.38 | 2.69 | 1.7
17 | CCACACUUCAUGCAAUUGGUC [Fam1B.1 aminoacylation ribozyme variant] | 0.43 | 0.764 | 0.791 | 0.627 | 0.619 | 0.658
18 | AUUCACCUAGUUUAUCGGGUG [Fam2.2 aminoacylation ribozyme variant] | 4.61 | 3.75 | 2.61 | 3.48 | 21.2 | 2.39
19 | GUACUUCAAACAAUCGGUCUA [Fam1A.1 aminoacylation ribozyme variant] | 3.66 | 0.943 | 0.997 | 0.933 | 4.84 | 1.17
20 | CCACAGUUCAAGCAUUCGGUC [Fam1B.1 aminoacylation ribozyme variant] | 1.86 | 1.84 | 2.33 | 2.04 | 1.61 | 1.88
21 | CCACACUUCCAGCGAUCGGUC [Fam1B.1 aminoacylation ribozyme variant] | 1.46 | 1.68 | 1.97 | 1.51 | 1.52 | 1.78
22 | AAGGUUGCUAAUAGUCGCAUG [Fam3.1 aminoacylation ribozyme variant] | 2 | 1.34 | 1.34 | 1.45 | 2.16 | 1.66
23 | AAGAUUGCUAAUAGUGGCAAG [Fam3.1 aminoacylation ribozyme variant] | 0.941 | 0.871 | 0.702 | 0.906 | 0.997 | 0.786
24 | CCACACUUCGAGCAAUCGCUC [Fam1B.1 aminoacylation ribozyme variant] | 2.71 | 2.13 | 2.62 | 1.71 | 5.11 | 1.98
25 | ACGUUUGCUACUAGUCGCAAG [Fam3.1 aminoacylation ribozyme variant] | 1.31 | 2.16 | 1.47 | 1.7 | 2.4 | 1.76
26 | AAGUUUGCUAAUUUUCGCAAG [Fam3.1 aminoacylation ribozyme variant] | 1.85 | 1.06 | 1.1 | 1.23 | 0.884 | 1.07

Row | Sequence | self-aminoacylation [1] | self-aminoacylation [2] | self-aminoacylation [3] | self-aminoacylation [4] | self-aminoacylation [5] | self-aminoacylation [6]
27 | AUUACCCUGGUCAUGGCGUGA [Fam2.1 aminoacylation ribozyme variant] | 19.4 | 16.2 | 10.3 | 17.4 | 125 | 7
28 | AUUCCCCUGGUCAUCGAGUGG [Fam2.1 aminoacylation ribozyme variant] | 3.73 | 2.48 | 2.18 | 3.15 |  | 2.29
29 | AUUCACCUAGGUCAACGAGUG [Fam2.2 aminoacylation ribozyme variant] |  | 2.6 |  | 3.76 | 5.07 | 2.07
30 | AAGUUCGCUAAUAGUCGCACG [Fam3.1 aminoacylation ribozyme variant] |  |  |  | 2.35 | 2.18 | 2.34
31 | AAGUUAGCCAAUAGUCGCAAG [Fam3.1 aminoacylation ribozyme variant] | 2.28 | 2.22 |  | 2.35 | 2.56 | 2.02
32 | AAAUUUGCUAACAGUCGCAAG [Fam3.1 aminoacylation ribozyme variant] |  |  |  |  | 2.2 | 2.02
33 | CCACACUUCAAGCAUUCGGUU [Fam1B.1 aminoacylation ribozyme variant] |  | 2.33 | 2.64 | 2.35 | 7.27 | 2.29
34 | GCACACAUCAAGCAAUCGGUC [Fam1B.1 aminoacylation ribozyme variant] | 2.22 |  |  |  | 3.12 | 2.01
35 | AUUCUCCUAGGUCAUCGGCUG [Fam2.2 aminoacylation ribozyme variant] |  | 2.49 | 2.51 | 2.54 | 9.44 | 2.19
36 | GAGUUUCCUAAUAGUCGCAAG [Fam3.1 aminoacylation ribozyme variant] | 2.26 |  | 2.08 |  | 2.31 | 2.65
37 | AAGCUUGCUAAUAUUCGCAAG [Fam3.1 aminoacylation ribozyme variant] | 3.38 |  | 2.13 |  |  | 2.47
38 | ACGUCUGCUAAUAGUCGCAAG [Fam3.1 aminoacylation ribozyme variant] | 8.61 | 2.12 |  |  | 32.2 | 2.02
39 | CCCCACUUCAACCAAUCGGUC [Fam1B.1 aminoacylation ribozyme variant] | 53.6 |  |  | 2.99 | 101 | 2.37
40 | AUUCACUUAGGUCAGCGGGUG [Fam2.2 aminoacylation ribozyme variant] | 2.75 | 2.99 |  | 3.88 | 15.6 | 2.5
41 | AUUCAACUAGGACAUCGGGUG [Fam2.2 aminoacylation ribozyme variant] | 2.79 | 2.42 |  | 3.38 | 17 | 2.05
42 | CCACACUUCAAGCAAACGGCC [Fam1B.1 aminoacylation ribozyme variant] | 3.66 |  | 3.77 | 3.75 |  | 2.6
43 | AAGCAUGCUAAUAGUCGCAAG [Fam3.1 aminoacylation ribozyme variant] | 2.61 | 2.61 |  |  | 6.71 | 2.36
44 | AAAUCUGCUAAUAGUCGCAAG [Fam3.1 aminoacylation ribozyme variant] | 9.08 | 2.01 | 2.04 |  | 19.3 | 2.48
45 | AUUACUCUGGCCAUCGAGUGA [Fam2.1 aminoacylation ribozyme variant] | 4.19 | 3.15 |  | 3.55 | 11.7 | 2.06
46 | AAUACCCUCGUCAUCGAGUGA [Fam2.1 aminoacylation ribozyme variant] | 3.7 | 2.53 |  | 3 | 3.81 | 2.08
47 | CCACAAUUCAAGCAAUCGCUC [Fam1B.1 aminoacylation ribozyme variant] |  | 2.18 | 2.12 | 2.38 |  | 2.51
48 | AACUUUGCUAAUACUCGCAAG [Fam3.1 aminoacylation ribozyme variant] |  |  |  |  | 2.02 | 2.19
49 | CAGUCUGCUAAUAGUCGCAAG [Fam3.1 aminoacylation ribozyme variant] | 9.53 | 2.86 |  |  | 28.2 | 2.14
50 | AAUUUUGCUAAAAGUCGCAAG [Fam3.1 aminoacylation ribozyme variant] | 3.11 |  |  | 2.38 | 2.77 | 2.1
51 | CCACACUUCAAGCAAUUGGUG [Fam1B.1 aminoacylation ribozyme variant] | 2.84 | 3.03 |  | 3.62 | 5.72 | 2.28
52 | CAGUUUGCUAAUAGUCGCAAA [Fam3.1 aminoacylation ribozyme variant] |  |  |  |  | 4.61 | 2.35
